Tests used:
[1] = biological target: Recombinant Human β-NGF (human, UniProt P01138 122-241); assay: cell-based or functional assay
[2] = biological target: T1, Recombinant Human ErbB3/HER3 Fc Chimera (human, UniProt P21860 20-643); assay: SPR (Biacore)
T1 construct: Bought reagent; not shown: IgG Fc part of the bought chimera
Protocol: (§1) The BIACORE assay (Biacore, Inc, Piscataway, N.J.) determines the affinity of antibodies or DVD-Ig with kinetic measurements of on-rate and off-rate constants. Binding of antibodies or DVD-Ig to a target antigen (for example, a purified recombinant target antigen) was determined by surface plasmon resonance-based measurements with a Biacore® 1000 or 3000 instrument (Biacore® AB, Uppsala, Sweden) using running HBS-EP (10 mM HEPES [pH 7.4], 150 mM NaCl, 3 mM EDTA, and 0.005% surfactant P20) at 25° C. All chemicals were obtained from Biacore® AB (Uppsala, Sweden) or otherwise from a different source as described in the text. For example, approximately 5000 RU of goat anti-mouse IgG, (Fcγ), fragment specific polyclonal antibody (Pierce Biotechnology Inc, Rockford, Ill.) diluted in 10 mM sodium acetate (pH 4.5) was directly immobilized across a CM5 research grade biosensor chip using a standard amine coupling kit according to manufacturer's instructions and procedures at 25 μg/ml. Unreacted moieties on the biosensor surface were blocked with ethanolamine. Modified carboxymethyl dextran surface in flowcell 2 and 4 was used as a reaction surface. Unmodified carboxymethyl dextran without goat anti-mouse IgG in flow cell 1 and 3 was used as the reference surface. For kinetic analysis, rate equations derived from the 1:1 Langmuir binding model were fitted simultaneously to association and dissociation phases of all eight injections (using global fit analysis) with the use of Biaevaluation 4.0.1 software. Purified antibodies or DVD-Ig were diluted in HEPES-buffered saline for capture across goat anti-mouse IgG specific reaction surfaces. Antibodies or DVD-Ig to be captured as a ligand (25 μg/ml) were injected over reaction matrices at a flow rate of 5 μl/min. The association and dissociation rate constants, kₒₙ (M⁻¹s⁻¹) and koff (s⁻¹) were determined under a continuous flow rate of 25 μl/min. Rate constants were derived by making kinetic binding measurements at different antigen concentrations ranging from 10-200 nM. The equilibrium dissociation constant (M) of the reaction between antibodies or DVD-Igs and the target antigen was then calculated from the kinetic rate constants by the following formula: KD=koff/kₒₙ. Binding was recorded as a function of time and kinetic rate constants were calculated.

[3] = biological target: T2, Recombinant Human EGF R/ErbB1 (human, UniProt P00533 25-645); assay: SPR (Biacore)
T2 construct: Bought reagent
Protocol: as §1

B1: DVD1335 (bispecific antibody, human IgG1, kappa)
heavy: not shown
light: DIQMTQSPSSLSASVGDRVTITCRASEDIYNALAWYQQKPGKAPKLLIYNTDTLHTGVPSRFSGSGSGTDYTLTISSLQPEDFATYFCQHYFHYPRTFGQGTKVEIKRTVAAPQIVLSQSPAILSPSPGEKVTMTCRASSSVSYIHWFQQKPGSSPKPWIYATSNLASGVPVRFSGSGSGTSYSLTISRVEAEDAATYYCQQWTSNPPTFGGGTKLEIKRTVAAPSVFIFPPSDEQLKSGTASVVCLLNNFYPREAKVQWKVDNALQSGNSQESVTEQDSKDSTYSLSSTLTLSKADYEKHKVYACEVTHQGLSSPVTKSFNRGEC
N-Terminal VD NGF Inhibition Assay EC50 [1]: 0.3 pM

B2: DVD1333 (bispecific antibody, human IgG1, kappa)
heavy: not shown
light: DIQMTQSPSSLSASVGDRVTITCRASEDIYNALAWYQQKPGKAPKLLIYNTDTLHTGVPSRFSGSGSGTDYTLTISSLQPEDFATYFCQHYFHYPRTFGQGTKVEIKRTVAAPQAVLTQPSSLSAPPGASASLTCTLRSGFNVDSYRISWYQQKPGSPPQYLLRYKSDSDKQQGSGVPSRFSGSKDASANAGILLISGLQSEDEADYYCMIWHSSAWVFGGGTKLTVLRTVAAPSVFIFPPSDEQLKSGTASVVCLLNNFYPREAKVQWKVDNALQSGNSQESVTEQDSKDSTYSLSSTLTLSKADYEKHKVYACEVTHQGLSSPVTKSFNRGEC
N-Terminal VD NGF Inhibition Assay EC50 [1]: 0.6 pM

B3: DVD1338 (bispecific antibody, human IgG1, kappa)
heavy: not shown
light: DIQMTQSPSSLSASVGDRVTITCQASQDISNYLNWYQQKPGKAPKLLIYDASNLETGVPSRFSGSGSGTDFTFTISSLQPEDIATYFCQHFDHLPLAFGGGTKVEIKRTVAAPDIQMTQSPSSLSASVGDRVTITCRASEDIYNALAWYQQKPGKAPKLLIYNTDTLHTGVPSRFSGSGSGTDYTLTISSLQPEDFATYFCQHYFHYPRTFGQGTKVEIKRTVAAPSVFIFPPSDEQLKSGTASVVCLLNNFYPREAKVQWKVDNALQSGNSQESVTEQDSKDSTYSLSSTLTLSKADYEKHKVYACEVTHQGLSSPVTKSFNRGEC
C-Terminal VD NGF Inhibition Assay EC50 [1]: 1270 pM

B4: DVD1320 (bispecific antibody, human IgG1, kappa)
heavy: not shown
light: DIQMTQSPSSLSASVGDRVTITCQASQDITNYLNWYQQKPGKAPKLLIYDASNLETGVPSRFSGSGSGTDFTFTISSLQPEDIATYNCQQCENFPITFGQGTRLEIKRTVAAPDIQMTQSPSSLSASVGDRVTITCRASEDIYNALAWYQQKPGKAPKLLIYNTDTLHTGVPSRFSGSGSGTDYTLTISSLQPEDFATYFCQHYFHYPRTFGQGTKVEIKRTVAAPSVFIFPPSDEQLKSGTASVVCLLNNFYPREAKVQWKVDNALQSGNSQESVTEQDSKDSTYSLSSTLTLSKADYEKHKVYACEVTHQGLSSPVTKSFNRGEC
notes: DVD-Ig; also called DVD1320H; DVD1320L
Kd [2]: < 4.2 pM
koff [2]: < 1e-06 s⁻¹
kon [2]: 240000 M⁻¹ s⁻¹

B5: DVD1316 (bispecific antibody, human IgG1, kappa)
heavy: not shown
light: DVVMTQSPLSLPVTPGEPASISCRSSQSLLHSNGFNYVDWYLQKPGQSPHLLIYFGSYRASGVPDRFSGSGSGTDFTLKISRVEAEDVGVYYCMQALQTPPWTFGQGTKVEIRRTVAAPDIQMTQSPSSLSASVGDRVTITCRASEDIYNALAWYQQKPGKAPKLLIYNTDTLHTGVPSRFSGSGSGTDYTLTISSLQPEDFATYFCQHYFHYPRTFGQGTKVEIKRTVAAPSVFIFPPSDEQLKSGTASVVCLLNNFYPREAKVQWKVDNALQSGNSQESVTEQDSKDSTYSLSSTLTLSKADYEKHKVYACEVTHQGLSSPVTKSFNRGEC
C-Terminal VD NGF Inhibition Assay EC50 [1]: 874 pM

B6: DVD1362 (bispecific antibody, human IgG1, kappa)
heavy: not shown
light: QSALTQPASVSGSPGQSITISCTGTSSDVGSYNVVSWYQQHPGKAPKLIIYEVSQRPSGVSNRFSGSKSGNTASLTISGLQTEDEADYYCCSYAGSSIFVIFGGGTKVTVLGQPKAAPDIQMTQSPSSLSASVGDRVTITCRASEDIYNALAWYQQKPGKAPKLLIYNTDTLHTGVPSRFSGSGSGTDYTLTISSLQPEDFATYFCQHYFHYPRTFGQGTKVEIKRTVAAPSVFIFPPSDEQLKSGTASVVCLLNNFYPREAKVQWKVDNALQSGNSQESVTEQDSKDSTYSLSSTLTLSKADYEKHKVYACEVTHQGLSSPVTKSFNRGEC
C-Terminal VD NGF Inhibition Assay EC50 [1]: 2.5 pM

B7: DVD1318 (bispecific antibody, human IgG1, kappa)
heavy: not shown
light: DIEMTQSPDSLAVSLGERATINCRSSQSVLYSSSNRNYLAWYQQNPGQPPKLLIYWASTRESGVPDRFSGSGSGTDFTLTISSLQAEDVAVYYCQQYYSTPRTFGQGTKVEIKRTVAAPDIQMTQSPSSLSASVGDRVTITCRASEDIYNALAWYQQKPGKAPKLLIYNTDTLHTGVPSRFSGSGSGTDYTLTISSLQPEDFATYFCQHYFHYPRTFGQGTKVEIKRTVAAPSVFIFPPSDEQLKSGTASVVCLLNNFYPREAKVQWKVDNALQSGNSQESVTEQDSKDSTYSLSSTLTLSKADYEKHKVYACEVTHQGLSSPVTKSFNRGEC
C-Terminal VD NGF Inhibition Assay EC50 [1]: 53.4 pM

B8: DVD1369 (bispecific antibody, human IgG1, kappa)
heavy: not shown
light: DIQMTQSPSSLSASVGDRVTITCRASEDIYNALAWYQQKPGKAPKLLIYNTDTLHTGVPSRFSGSGSGTDYTLTISSLQPEDFATYFCQHYFHYPRTFGQGTKVEIKRTVAAPDIQMTQSPSSMSVSVGDRVTITCHSSQDINSNIGWLQQKPGKSFKGLIYHGTNLDDGVPSRFSGSGSGTDYTLTISSLQPEDFATYYCVQYAQFPWTFGGGTKLEIKRTVAAPSVFIFPPSDEQLKSGTASVVCLLNNFYPREAKVQWKVDNALQSGNSQESVTEQDSKDSTYSLSSTLTLSKADYEKHKVYACEVTHQGLSSPVTKSFNRGEC
notes: DVD-Ig; also called DVD1369H; DVD1369L
Kd [3]: < 2.4 pM
koff [3]: < 1e-06 s⁻¹
kon [3]: 410000 M⁻¹ s⁻¹
N-Terminal VD NGF Inhibition Assay EC50 [1]: 5.6 pM

B9: DVD1370 (bispecific antibody, human IgG1, kappa)
heavy: not shown
light: DIQMTQSPSSMSVSVGDRVTITCHSSQDINSNIGWLQQKPGKSFKGLIYHGTNLDDGVPSRFSGSGSGTDYTLTISSLQPEDFATYYCVQYAQFPWTFGGGTKLEIKRTVAAPDIQMTQSPSSLSASVGDRVTITCRASEDIYNALAWYQQKPGKAPKLLIYNTDTLHTGVPSRFSGSGSGTDYTLTISSLQPEDFATYFCQHYFHYPRTFGQGTKVEIKRTVAAPSVFIFPPSDEQLKSGTASVVCLLNNFYPREAKVQWKVDNALQSGNSQESVTEQDSKDSTYSLSSTLTLSKADYEKHKVYACEVTHQGLSSPVTKSFNRGEC
notes: DVD-Ig; also called DVD1370H; DVD1370L
Kd [3]: < 9.1 pM
koff [3]: < 1e-06 s⁻¹
kon [3]: 110000 M⁻¹ s⁻¹
C-Terminal VD NGF Inhibition Assay EC50 [1]: 5960 pM

B10: AB063 (antibody, V domains shown)
VH: EVQLVESGGGLVQPGGSLRLSCAASGFTFSIYSMNWVRQAPGKGLEWVSYISSSSSTIYYADSVKGRFTISRDNAKNSLYLQMNSLRDEDTAVYYCARDRGDFDAFDIWGQGTMVTVSS
VL: DIQMTQSPSSLSASVGDRVTITCQASQDITNYLNWYQQKPGKAPKLLIYDASNLETGVPSRFSGSGSGTDFTFTISSLQPEDIATYNCQQCENFPITFGQGTRLEIKR
notes: Parent antibody; also called AB063VH
Kd [2]: 1360 pM
koff [2]: 0.000117 s⁻¹
kon [2]: 86600 M⁻¹ s⁻¹

B11: DVD1313 (bispecific antibody, human IgG1, lambda)
heavy: not shown
light: DIQMTQSPSSLSASVGDRVTITCRASEDIYNALAWYQQKPGKAPKLLIYNTDTLHTGVPSRFSGSGSGTDYTLTISSLQPEDFATYFCQHYFHYPRTFGQGTKVEIKRTVAAPQSVLTQPPSVSAAPGQKVTISCSGSSSNIENNHVSWYQQLPGTAPKLLIYDNNKRPSGIPDRFSGSKSGTSATLGITGLQTGDEADYYCETWDTSLSAGRVFGGGTKLTVLGQPKAAPSVTLFPPSSEELQANKATLVCLISDFYPGAVTVAWKADSSPVKAGVETTTPSKQSNNKYAASSYLSLTPEQWKSHRSYSCQVTHEGSTVEKTVAPTECS
N-Terminal VD NGF Inhibition Assay EC50 [1]: 0.9 pM

B12: DVD1315 (bispecific antibody, human IgG1, kappa)
heavy: not shown
light: DIQMTQSPSSLSASVGDRVTITCRASEDIYNALAWYQQKPGKAPKLLIYNTDTLHTGVPSRFSGSGSGTDYTLTISSLQPEDFATYFCQHYFHYPRTFGQGTKVEIKRTVAAPDVVMTQSPLSLPVTPGEPASISCRSSQSLLHSNGFNYVDWYLQKPGQSPHLLIYFGSYRASGVPDRFSGSGSGTDFTLKISRVEAEDVGVYYCMQALQTPPWTFGQGTKVEIRRTVAAPSVFIFPPSDEQLKSGTASVVCLLNNFYPREAKVQWKVDNALQSGNSQESVTEQDSKDSTYSLSSTLTLSKADYEKHKVYACEVTHQGLSSPVTKSFNRGEC
N-Terminal VD NGF Inhibition Assay EC50 [1]: 2.2 pM

B13: DVD1314 (bispecific antibody, human IgG1, kappa)
heavy: not shown
light: QSVLTQPPSVSAAPGQKVTISCSGSSSNIENNHVSWYQQLPGTAPKLLIYDNNKRPSGIPDRFSGSKSGTSATLGITGLQTGDEADYYCETWDTSLSAGRVFGGGTKLTVLGQPKAAPDIQMTQSPSSLSASVGDRVTITCRASEDIYNALAWYQQKPGKAPKLLIYNTDTLHTGVPSRFSGSGSGTDYTLTISSLQPEDFATYFCQHYFHYPRTFGQGTKVEIKRTVAAPSVFIFPPSDEQLKSGTASVVCLLNNFYPREAKVQWKVDNALQSGNSQESVTEQDSKDSTYSLSSTLTLSKADYEKHKVYACEVTHQGLSSPVTKSFNRGEC
C-Terminal VD NGF Inhibition Assay EC50 [1]: 0.3 pM

Reference: patent US20120014957A1 (AbbVie / Abbott, published 2012)
